Assay results: patent EP4786492A1
Positions count from the first letter of the chain named.

B1: Hab008L1H2a-hFc (scFv, part only; not given: VL-VH linker and human IgG1 Fc, V domains shown, not shown: another chain or arm of the molecule; a dimerising Fc or GST; small tags and cut ends)
VL: DIQMTQSPSSLSASVGDRVTITCKASQNVGTAVAWYQQKPGKSPKLLIFSASIRYTGVPSRFSGSGSGTDFTLTISSLQPEDFATYYCQQYSSSPYTFGGGTKVEIK
VH: EVQLVQSGAEVKKPGASVKVSCKASGYTFTDYYMNWVRQAPGQRLEWMGIINPYNSGTSYNQKFRGRVTLTVDKSASTAYMELSSLRSEDTAVYYCSRYDYDYDVEGAMDYWGQGTTVTVSS
B2: Hab008L1H5-hFc (scFv, part only; not given: VL-VH linker and human IgG1 Fc, V domains shown, not shown: another chain or arm of the molecule; a dimerising Fc or GST; small tags and cut ends)
VL: B1 VL
VH: B1 VH with Q39R, S56G, L70I
B3: Hab008L3H2a-hFc (scFv, part only; not given: VL-VH linker and human IgG1 Fc, V domains shown, not shown: another chain or arm of the molecule; a dimerising Fc or GST; small tags and cut ends)
VL: DIVMTQSPDSLAVSLGERATINCKASQNVGTAVAWYQQKPGQSPKLLIFSASIRYTGVPDRFSGSGSGTDFTLTISSLQAEDVAVYYCQQYSSSPYTFGGGTKVEIK
VH: B1 VH
B4: Hab008L3H5-hFc (scFv, part only; not given: scFv linker and human IgG1 Fc, V domains shown, not shown: another chain or arm of the molecule; a dimerising Fc or GST; small tags and cut ends)
VL: B3 VL
VH: B1 VH with Q39R, S56G, L70I
B5: Hab009VL3aVH1-hFc (Fc fusion, part only; not given: Linker and human IgG1 Fc, not shown: a dimerising Fc or GST)
chain, part: DIVMTQSPLSLPVTPGEPASISCRASQTISDYLHWYLQKSHQSPQLLIKYASQSISGVPDRFSGSGSGTDFTLKISRVEAEDVGVYYCQQGHSFPLTFGQGTKLEIKEVQLVQSGAEVKKPGASVKVSCKASGYTFTSYWMHWVRQAPGQRLEWMGTIYPGNSDTRYNQKFKDRVTITADTSASTAYMELSSLRSEDTAVYYCTRSYDYGDLDYWGQGTTVTVSS

molecular target: monkey DLL3 on CHO-K1-cyno DLL3 cells (cynomolgus monkey); experiment: FACS, CHO-K1-cyno DLL3 cells, 4 nM antibody
Sequence (chain, as listed by the source limits assumed): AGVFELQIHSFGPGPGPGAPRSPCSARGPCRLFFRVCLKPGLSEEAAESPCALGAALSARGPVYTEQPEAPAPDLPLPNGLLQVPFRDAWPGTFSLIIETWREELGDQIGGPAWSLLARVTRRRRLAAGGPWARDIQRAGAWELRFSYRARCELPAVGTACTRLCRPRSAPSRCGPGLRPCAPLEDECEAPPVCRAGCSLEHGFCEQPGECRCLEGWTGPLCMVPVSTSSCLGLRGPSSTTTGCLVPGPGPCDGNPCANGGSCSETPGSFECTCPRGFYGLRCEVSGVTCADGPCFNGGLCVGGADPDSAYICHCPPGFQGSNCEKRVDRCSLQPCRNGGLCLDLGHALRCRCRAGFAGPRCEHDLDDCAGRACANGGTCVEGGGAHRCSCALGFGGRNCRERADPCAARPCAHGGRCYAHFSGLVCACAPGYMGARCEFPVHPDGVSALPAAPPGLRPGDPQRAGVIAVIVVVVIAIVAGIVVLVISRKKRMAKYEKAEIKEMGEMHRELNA

| Binder | MFI [MFI] |
| --- | --- |
| B1 | 17600 |
| B2 | 12100 |
| B3 | 14800 |
| B4 | 12900 |

molecular target: DLL3 endogenously expressed on NCI-H82 cells (UniProt Q9NYJ7); experiment: FACS on NCI-H82 cells; antibody 4 nM
Sequence (Q9NYJ7 27-618): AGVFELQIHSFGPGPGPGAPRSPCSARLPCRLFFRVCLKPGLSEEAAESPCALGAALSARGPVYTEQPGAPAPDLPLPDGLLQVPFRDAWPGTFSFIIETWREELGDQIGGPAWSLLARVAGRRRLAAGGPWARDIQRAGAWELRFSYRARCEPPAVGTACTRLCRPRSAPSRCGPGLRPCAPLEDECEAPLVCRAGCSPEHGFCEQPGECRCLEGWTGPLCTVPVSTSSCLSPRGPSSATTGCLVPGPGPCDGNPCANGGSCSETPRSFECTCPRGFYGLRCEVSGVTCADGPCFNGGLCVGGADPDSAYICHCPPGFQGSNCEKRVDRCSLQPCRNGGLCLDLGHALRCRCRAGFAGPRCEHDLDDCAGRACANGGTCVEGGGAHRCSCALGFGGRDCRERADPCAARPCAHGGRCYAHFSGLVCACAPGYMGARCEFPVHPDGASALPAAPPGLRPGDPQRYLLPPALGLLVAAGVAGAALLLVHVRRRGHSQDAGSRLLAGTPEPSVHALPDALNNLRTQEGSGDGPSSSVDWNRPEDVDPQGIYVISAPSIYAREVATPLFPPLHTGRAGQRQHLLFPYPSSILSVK

| Binder | MFI |
| --- | --- |
| B1 | 440 |
| B2 | 539 |
| B3 | 307 |
| B4 | 388 |

molecular target: DLL3 endogenously expressed on NCI-H82 cells (UniProt Q9NYJ7); experiment: FACS on NCI-H82 cells; antibody 0.00128 nM

| Binder | MFI |
| --- | --- |
| B1 | 93 |
| B2 | 102 |
| B3 | 85 |
| B4 | 99 |

molecular target: DLL3 endogenously expressed on NCI-H82 cells (UniProt Q9NYJ7); experiment: FACS on NCI-H82 cells; antibody 0.8 nM

| Binder | MFI |
| --- | --- |
| B1 | 312 |
| B2 | 245 |
| B3 | 135 |
| B4 | 152 |

molecular target: DLL3 endogenously expressed on NCI-H82 cells (UniProt Q9NYJ7); experiment: FACS on NCI-H82 cells; antibody 0.0064 nM

| Binder | MFI |
| --- | --- |
| B1 | 106 |
| B2 | 106 |
| B3 | 89 |
| B4 | 90 |

molecular target: human DLL3 protein expressed on CHO-K1 recombinant cells (human DLL3 extracellular segment fused to EpCAM transmembrane and intracellular regions) (human) (UniProt Q9NYJ7); experiment: FACS, CHO-K1 hDLL3 cells, 20 nM antibody
Sequence (Q9NYJ7 other isoform, or with tags, fused parts or gaps limits assumed): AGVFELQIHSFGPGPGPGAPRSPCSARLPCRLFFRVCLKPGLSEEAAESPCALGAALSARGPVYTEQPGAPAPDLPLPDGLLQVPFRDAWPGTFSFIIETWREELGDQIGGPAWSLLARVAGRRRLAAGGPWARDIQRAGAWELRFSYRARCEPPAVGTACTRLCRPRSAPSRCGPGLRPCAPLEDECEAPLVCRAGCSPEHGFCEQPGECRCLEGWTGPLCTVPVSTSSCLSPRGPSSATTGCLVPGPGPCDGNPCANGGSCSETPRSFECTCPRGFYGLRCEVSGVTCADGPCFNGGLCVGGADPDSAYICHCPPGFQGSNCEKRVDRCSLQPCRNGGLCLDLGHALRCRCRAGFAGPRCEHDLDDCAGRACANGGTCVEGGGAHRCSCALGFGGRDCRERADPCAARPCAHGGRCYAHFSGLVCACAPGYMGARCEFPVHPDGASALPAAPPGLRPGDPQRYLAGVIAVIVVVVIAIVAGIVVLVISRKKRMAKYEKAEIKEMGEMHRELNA

| Binder | MFI [MFI] |
| --- | --- |
| B1 | 7660 |
| B2 | 7750 |
| B3 | 8200 |
| B4 | 8320 |
| B5 | 13300 |

molecular target: DLL3 endogenously expressed on NCI-H82 cells (UniProt Q9NYJ7); experiment: FACS on NCI-H82 cells; antibody 100 nM

| Binder | MFI |
| --- | --- |
| B1 | 617 |
| B2 | 1860 |
| B3 | 550 |
| B4 | 1340 |

molecular target: human DLL3 protein expressed on CHO-K1 recombinant cells (human DLL3 extracellular segment fused to EpCAM transmembrane and intracellular regions) (human) (UniProt Q9NYJ7); experiment: FACS, CHO-K1 hDLL3 cells, 4 nM antibody

| Binder | MFI [MFI] |
| --- | --- |
| B1 | 7440 |
| B2 | 6530 |
| B3 | 7190 |
| B4 | 7140 |
| B5 | 12800 |

molecular target: monkey DLL3 on CHO-K1-cyno DLL3 cells (cynomolgus monkey); experiment: FACS, CHO-K1-cyno DLL3 cells, 0.16 nM antibody

| Binder | MFI [MFI] |
| --- | --- |
| B1 | 1540 |
| B2 | 711 |
| B3 | 928 |
| B4 | 724 |

molecular target: human DLL3 protein expressed on CHO-K1 recombinant cells (human DLL3 extracellular segment fused to EpCAM transmembrane and intracellular regions) (human) (UniProt Q9NYJ7); experiment: FACS, CHO-K1 hDLL3 cells, 0.8 nM antibody

| Binder | MFI [MFI] |
| --- | --- |
| B1 | 3700 |
| B2 | 2170 |
| B3 | 2700 |
| B4 | 2370 |
| B5 | 11800 |

molecular target: DLL3 endogenously expressed on NCI-H82 cells (UniProt Q9NYJ7); experiment: FACS on NCI-H82 cells; antibody 0.16 nM

| Binder | MFI |
| --- | --- |
| B1 | 194 |
| B2 | 149 |
| B3 | 97 |
| B4 | 102 |

molecular target: human DLL3 protein expressed on CHO-K1 recombinant cells (human DLL3 extracellular segment fused to EpCAM transmembrane and intracellular regions) (human) (UniProt Q9NYJ7); experiment: FACS, CHO-K1 hDLL3 cells, 0.0064 nM antibody

| Binder | MFI [MFI] |
| --- | --- |
| B1 | 148 |
| B2 | 127 |
| B3 | 126 |
| B4 | 131 |
| B5 | 458 |

molecular target: human DLL3 protein expressed on CHO-K1 recombinant cells (human DLL3 extracellular segment fused to EpCAM transmembrane and intracellular regions) (human) (UniProt Q9NYJ7); experiment: FACS, CHO-K1 hDLL3 cells, 100 nM antibody

| Binder | MFI [MFI] |
| --- | --- |
| B1 | 7690 |
| B2 | 8400 |
| B3 | 7600 |
| B4 | 8950 |
| B5 | 13400 |

molecular target: human DLL1 protein (Acro, Cat. No. DL1-H52H8) (human) (UniProt O00548); experiment: ELISA, coated hDLL1; maximum over 0.1, 1, 10, 100 nM antibody
Sequence (O00548 18-540 limits assumed): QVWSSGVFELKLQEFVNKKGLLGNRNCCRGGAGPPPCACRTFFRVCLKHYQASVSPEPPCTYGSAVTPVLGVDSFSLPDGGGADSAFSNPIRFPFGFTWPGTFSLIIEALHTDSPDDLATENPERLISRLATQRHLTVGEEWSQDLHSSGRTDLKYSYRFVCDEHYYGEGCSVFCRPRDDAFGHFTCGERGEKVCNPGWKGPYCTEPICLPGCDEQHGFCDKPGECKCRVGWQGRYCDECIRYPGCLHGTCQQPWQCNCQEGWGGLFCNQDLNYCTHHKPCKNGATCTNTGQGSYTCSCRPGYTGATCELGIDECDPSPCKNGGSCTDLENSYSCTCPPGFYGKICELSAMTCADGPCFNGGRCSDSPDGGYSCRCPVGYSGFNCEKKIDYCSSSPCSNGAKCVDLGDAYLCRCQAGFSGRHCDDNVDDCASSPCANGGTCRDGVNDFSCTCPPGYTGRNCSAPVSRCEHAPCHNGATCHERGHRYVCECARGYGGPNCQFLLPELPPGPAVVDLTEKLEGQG

| Binder | Emax of OD450 nm binding value [OD450 nm] |
| --- | --- |
| B1 | 0.06 |
| B2 | 0.24 |
| B3 | 0.04 |
| B4 | 0.11 |

molecular target: monkey DLL3 on CHO-K1-cyno DLL3 cells (cynomolgus monkey); experiment: FACS, CHO-K1-cyno DLL3 cells, 100 nM antibody

| Binder | MFI [MFI] |
| --- | --- |
| B1 | 18600 |
| B2 | 18400 |
| B3 | 21400 |
| B4 | 21600 |

molecular target: human DLL3 protein expressed on CHO-K1 recombinant cells (human DLL3 extracellular segment fused to EpCAM transmembrane and intracellular regions) (human) (UniProt Q9NYJ7); experiment: FACS, CHO-K1 hDLL3 cells, 0.00128 nM antibody

| Binder | MFI [MFI] |
| --- | --- |
| B1 | 109 |
| B2 | 103 |
| B3 | 98 |
| B4 | 100 |
| B5 | 204 |

molecular target: monkey DLL3 on CHO-K1-cyno DLL3 cells (cynomolgus monkey); experiment: FACS, CHO-K1-cyno DLL3 cells, 0.8 nM antibody

| Binder | MFI [MFI] |
| --- | --- |
| B1 | 7010 |
| B2 | 2940 |
| B3 | 3980 |
| B4 | 3470 |

molecular target: human DLL3 protein expressed on CHO-K1 recombinant cells (human DLL3 extracellular segment fused to EpCAM transmembrane and intracellular regions) (human) (UniProt Q9NYJ7); experiment: FACS, CHO-K1 hDLL3 cells, 0.032 nM antibody

| Binder | MFI [MFI] |
| --- | --- |
| B1 | 316 |
| B2 | 221 |
| B3 | 240 |
| B4 | 235 |
| B5 | 1500 |

molecular target: DLL3 endogenously expressed on NCI-H82 cells (UniProt Q9NYJ7); experiment: FACS on NCI-H82 cells; antibody 20 nM

| Binder | MFI |
| --- | --- |
| B1 | 503 |
| B2 | 1020 |
| B3 | 448 |
| B4 | 674 |

molecular target: human DLL3 protein expressed on CHO-K1 recombinant cells (human DLL3 extracellular segment fused to EpCAM transmembrane and intracellular regions) (human) (UniProt Q9NYJ7); experiment: FACS, CHO-K1 hDLL3 cells, 0.16 nM antibody

| Binder | MFI [MFI] |
| --- | --- |
| B1 | 866 |
| B2 | 521 |
| B3 | 715 |
| B4 | 671 |
| B5 | 5730 |

molecular target: human DLL4 protein (Acro, Cat. No. DL4-H5227) (human) (UniProt Q9NR61); experiment: ELISA, coated hDLL4; maximum over 0.1, 1, 10, 100 nM antibody
Sequence (Q9NR61 27-524 limits assumed): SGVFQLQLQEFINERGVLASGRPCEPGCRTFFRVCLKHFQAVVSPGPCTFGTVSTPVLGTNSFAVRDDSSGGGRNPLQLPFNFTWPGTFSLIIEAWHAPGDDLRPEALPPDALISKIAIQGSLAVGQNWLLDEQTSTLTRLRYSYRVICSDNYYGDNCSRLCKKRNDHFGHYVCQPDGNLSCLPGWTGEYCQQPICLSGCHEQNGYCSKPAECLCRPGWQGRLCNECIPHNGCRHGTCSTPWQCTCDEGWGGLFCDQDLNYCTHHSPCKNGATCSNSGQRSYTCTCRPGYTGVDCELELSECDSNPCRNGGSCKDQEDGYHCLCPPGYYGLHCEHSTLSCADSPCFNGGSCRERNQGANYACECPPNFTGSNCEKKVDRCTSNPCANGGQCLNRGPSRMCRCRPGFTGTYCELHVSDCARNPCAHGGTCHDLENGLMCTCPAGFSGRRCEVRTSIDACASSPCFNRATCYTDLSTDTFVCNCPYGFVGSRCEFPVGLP

| Binder | Emax of OD450 nm binding value [OD450 nm] |
| --- | --- |
| B1 | 0.07 |
| B2 | 0.69 |
| B3 | 0.04 |
| B4 | 0.18 |

molecular target: monkey DLL3 on CHO-K1-cyno DLL3 cells (cynomolgus monkey); experiment: FACS, CHO-K1-cyno DLL3 cells, 0.00128 nM antibody

| Binder | MFI [MFI] |
| --- | --- |
| B1 | 129 |
| B2 | 116 |
| B3 | 103 |
| B4 | 103 |

molecular target: monkey DLL3 on CHO-K1-cyno DLL3 cells (cynomolgus monkey); experiment: FACS, CHO-K1-cyno DLL3 cells, 20 nM antibody

| Binder | MFI [MFI] |
| --- | --- |
| B1 | 19500 |
| B2 | 18400 |
| B3 | 21300 |
| B4 | 20300 |

molecular target: monkey DLL3 on CHO-K1-cyno DLL3 cells (cynomolgus monkey); experiment: FACS, CHO-K1-cyno DLL3 cells, 0.0064 nM antibody

| Binder | MFI [MFI] |
| --- | --- |
| B1 | 231 |
| B2 | 159 |
| B3 | 148 |
| B4 | 142 |

molecular target: human delta-like ligand 3 (DLL3) on SHP77 cells (human) (UniProt Q9NYJ7); experiment: FACS on SHP77 cells
Sequence (Q9NYJ7 27-618, stated change not applied): as the sequence (Q9NYJ7 27-618) above

| Binder | MFI at 0.00128 nM [MFI] | MFI at 0.0064 nM [MFI] | MFI at 0.032 nM [MFI] | MFI at 0.16 nM [MFI] | MFI at 0.8 nM [MFI] | MFI at 4 nM [MFI] | MFI at 20 nM [MFI] | MFI at 100 nM [MFI] |
| --- | --- | --- | --- | --- | --- | --- | --- | --- |
| B1 | 119 | 121 | 126 | 144 | 187 | 297 | 532 | 758 |
| B2 | 121 | 120 | 123 | 139 | 186 | 333 | 793 | 1530 |
| B3 | 117 | 117 | 121 | 129 | 168 | 255 | 426 | 613 |
| B4 | 117 | 117 | 122 | 133 | 194 | 330 | 634 | 974 |
| B5 | 105 | 128 | 196 | 396 | 673 | 769 | 852 | 954 |

molecular target: DLL3 endogenously expressed on NCI-H82 cells (UniProt Q9NYJ7); experiment: FACS on NCI-H82 cells; antibody 0.032 nM

| Binder | MFI |
| --- | --- |
| B1 | 134 |
| B2 | 114 |
| B3 | 90 |
| B4 | 91 |

molecular target: monkey DLL3 on CHO-K1-cyno DLL3 cells (cynomolgus monkey); experiment: FACS, CHO-K1-cyno DLL3 cells, 0.032 nM antibody

| Binder | MFI [MFI] |
| --- | --- |
| B1 | 511 |
| B2 | 286 |
| B3 | 329 |
| B4 | 252 |

molecular target: human DLL3 protein (extracellular segment, His tag) (human) (UniProt Q9NYJ7); experiment: SPR (Biacore 8K), antibody captured on Protein A chip, DLL3 antigen in solution, 1:1 Langmuir fit
Sequence (Q9NYJ7 27-492): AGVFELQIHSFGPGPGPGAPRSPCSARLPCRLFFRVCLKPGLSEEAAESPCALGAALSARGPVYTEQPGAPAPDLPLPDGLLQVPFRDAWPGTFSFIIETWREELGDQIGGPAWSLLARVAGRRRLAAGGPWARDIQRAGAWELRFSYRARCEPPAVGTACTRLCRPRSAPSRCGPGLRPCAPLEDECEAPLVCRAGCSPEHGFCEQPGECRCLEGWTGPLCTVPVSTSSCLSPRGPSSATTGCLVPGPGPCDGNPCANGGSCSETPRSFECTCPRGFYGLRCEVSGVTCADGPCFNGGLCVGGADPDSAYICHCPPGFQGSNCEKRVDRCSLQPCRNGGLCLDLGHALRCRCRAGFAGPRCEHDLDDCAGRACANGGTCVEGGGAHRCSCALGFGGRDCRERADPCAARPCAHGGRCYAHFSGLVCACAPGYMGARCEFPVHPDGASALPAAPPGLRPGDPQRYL

| Binder | Kd [nM] | koff [s⁻¹] | kon [M⁻¹ s⁻¹] |
| --- | --- | --- | --- |
| B1 | 0.535 | 0.000324 | 606000 |
| B3 | 0.529 | 0.000405 | 766000 |
| B4 | 0.902 | 0.000312 | 345000 |
